# According to US20230035798A1 (CAPELLA BIOSCIENCE, published 2023):
# Positions count from the first letter of the chain named.
# B1: 3E09 (antibody, V domains shown)
# VH: EVQLVESGGGLVKPGGSLKLSCEASGFTFSDYYMYWVRQTPEKRLEWVAAIGDGGIYTYYADTVKGRFTISRDNAKNILYLQMSSLKSNDTAMYYCARGTGDGFAYWGQGTLVTVS
# VL: DIVLTQSPASLAVSLGQRATISCRASESVDSYGNSFMHWYQQKPGQPPKLLIYLASNLESGVPARFSGSGSRTDFTLTIDPVEADDAATYYCQQNNEDPYTFGGGTKLEIK
# notes: chimeric human IgG4 (S-to-P, L-to-E at 248), human CL; also called Parental 3E09
# B2: 2E08 (antibody, human IgG4, V domains shown)
# VH: QVQMKESGAELVRPGVSVKISCKGSGYTFTDYAIHWVKQSHAKTLEWIGVISTYYGDASYNQKFKGKATMTVDKSSSTAYMELARLTSDDSAIYYCARSRGEYGNYDAMDYWGQGTSVTVSS
# VL: DIVLTQSPASLAVSLGQRATISCKASQSVDYDGDSYMNWYQQKPGQPPKLLIYAASNLESGIPARFSGSGSGTDFTLNIHPVEEEDAATYYCQQSNEDPLTFGAGTKLELK
# notes: chimeric human IgG4 (S-to-P, L-to-E at 248), human CL; also called Parental 2E08
# B3: 2B11 (antibody, human IgG4, V domains shown)
# VH: B2 VH with Q1E, M4L, K5V, T44S, D89E
# VL: B1 VL with L54R, V62I, D80N, A87V, N95S
# notes: chimeric human IgG4 (S-to-P, L-to-E at 248), human CL; also called Parental 2B11
# B4: 3A07 (antibody, human IgG4, V domains shown)
# VH: QVQLQQSGAELVRPGAPVTLSCKASDYTFTDSEIHWVKQTPVHGLEWIGEIDPETGGTAYNQKFKGKATLTADKSSSTAYMELRSLTSEDSAVYYCSRETDYFFDYWGQGTTLTVSS
# VL: ENVLTQSPAIMSASPGEKVTMTCSASSSVSYMYWYQQRPGSSPRLLIYDTSNLASGVPVRFSGSGSGTSYSLTISRMEAEDAATYYCQQWSSYPLTFGSGTKLEIK
# notes: chimeric human IgG4 (S-to-P, L-to-E at 248), human CL; also called Parental 3A07
# B5: 3B04 (antibody, human IgG4, V domains shown)
# VH: B4 VH with S7P, P17S, D26G, S32Y, I34M, G57D, N61S, L83F
# VL: DIQMTQTPASLSASVGETVTITCGASENIYGALNWYQRKQGKSPQLLIYGATNLADGMSSRFSGSGSGRQYSLKISSLHPDDFATYYCQNVLTTPWTFGGGTKLEIKR
# notes: chimeric: mouse variable domains on human IgG4 HC (S-to-P and L-to-E at 248) and human CL; also called Parental 3B04; 3B04 chimeric
# B6: 3C10 (antibody, human IgG4, V domains shown)
# VH: B4 VH with Q1E, P17S
# VL: B4 VL with E1D, N2V, L4M, S7T, R38K, S99A, I105L
# notes: chimeric human IgG4 (S-to-P, L-to-E at 248), human CL; also called Parental 3C10
# B7: 3D12 (antibody, human IgG4, V domains shown)
# VH: B4 VH with S7P, P17S
# VL: B5 VL with T7S, F83V, T93S
# notes: chimeric: mouse variable domains on human IgG4 HC (S-to-P and L-to-E at 248) and human CL; also called Parental 3D12; 3D12 chimeric
# Target: T1, cynomolgus (Macaca fascicularis) LIGHT, membrane-bound (cynomolgus (Macaca fascicularis), UniProt E9NVF7 1-240)
# T1 construct: whole, on cells; also called cynomolgus membrane LIGHT; HEK293FF-cynomolgus LIGHT cells
# Test: flow cytometry, transiently transfected HEK293FF cells
# Text: (§1) In order to compare the cross-reactivity of the mAbs to both human and cynomolgus LIGHT, transiently transfected human or cynomolgus LIGHT-HEK293FF cells were utilised in which approximately 50% of the cells expressed LIGHT and bound mAb was detected with goat anti-human IgG FITC. The EC50 of each mAb is depicted in Table 6 after correction for background binding to untransfected cells. (Note that when the relationship between receptor occupancy and response is linear, EC50 may be equivalent or substantially equivalent to KD).
# T1 sequence (E9NVF7 entry or part of it): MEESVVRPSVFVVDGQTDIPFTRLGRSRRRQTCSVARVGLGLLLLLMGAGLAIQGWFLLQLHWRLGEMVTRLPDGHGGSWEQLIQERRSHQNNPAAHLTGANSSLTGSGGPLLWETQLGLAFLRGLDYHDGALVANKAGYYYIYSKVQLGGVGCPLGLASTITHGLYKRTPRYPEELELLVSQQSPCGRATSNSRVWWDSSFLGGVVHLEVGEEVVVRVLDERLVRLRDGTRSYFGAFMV
row,Binder,EC50 [nM]
1,B1,0.7
2,B2,0.3
3,B3,0.02
4,B4,7.6
5,B5,0.1
6,B6,10.3
7,B7,0.3

# Target: T2, human LIGHT (TNFSF14), full length, membrane-bound (214E allele) (human, UniProt O43557 1-240)
# T2 construct: also called membrane LIGHT; human membrane LIGHT
# Test: as above
# Text: as §1
# Target sequence in this assay (O43557 whole entry K214E): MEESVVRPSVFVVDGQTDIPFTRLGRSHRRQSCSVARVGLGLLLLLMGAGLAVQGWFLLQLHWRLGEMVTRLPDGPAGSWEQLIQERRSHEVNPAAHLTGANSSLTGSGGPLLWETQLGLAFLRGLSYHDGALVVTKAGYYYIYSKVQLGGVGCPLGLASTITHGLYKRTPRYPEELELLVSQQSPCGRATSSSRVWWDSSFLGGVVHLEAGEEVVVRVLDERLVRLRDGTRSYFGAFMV
row,Binder,EC50 [nM]
1,B1,1.3
2,B2,0.3
3,B3,0.4
4,B4,0.1
5,B5,0.2
6,B6,0.2
7,B7,0.2

# Target: T2, human LIGHT (TNFSF14), full length, …
# Test: DcR3-His (1 nM) competition, EL4-LIGHT, flow cytometry; 0.41 nM
# Method: (§2) EL4-LIGHT cells (0.25×10⁶) were preincubated with anti-membrane LIGHT mAbs (0-300 nM) for 15 min at 4° C. followed by incubation with DcR3-His tagged (1 nM, Creative BioMart; ref: TNFRSF6B-552H, lot: 962512) for 30 min at 4° C. The samples were then incubated with mouse anti-histag antibody (diluted 1:500, Biolegend, cat. no. 652502) for 30 minutes at 4° C., followed by incubation with anti-mouse APC (dil 1:500, BDBiosciences, cat. no. 550826) for 30 minutes at 4° C. The tubes were washed three times after each of the detection antibody stages and flow cytometry analysis was performed. Specific mean fluorescence intensity (MFI) obtained from the binding of DcR3-His to LIGHT on EL4 cells were used to determine the levels of competition binding.
# (§3) In humans, LIGHT is neutralized by DcR3, a unique soluble member of the TNFR superfamily, which tightly binds LIGHT (both soluble and membrane forms) and inhibits its interactions with HVEM and LTβR. A major binding determinant for DcR3 neutralization is the region T170-E178 on LIGHT (Liu et al. Structure 2014: 9; 1252-1262). […] In contrast the anti-LIGHT mAb F19, (from EP2292663) which binds both soluble LIGHT and membrane LIGHT equally well completely displaces DcR3 from binding to membrane LIGHT highlighting a surprising an important functional difference between the anti-membrane LIGHT mAbs of this invention and other neutralizing anti-LIGHT mAbs that have been raised against or screened against soluble LIGHT.
# Target sequence in this assay (O43557 whole entry K214E): as above
row,Binder,"DcR3-His binding, % of irrelevant mAb [%]"
1,B1,94.2
2,B2,107
3,B3,114
4,B4,102
5,B5,94.8
6,B6,124
7,B7,99.4

# Target: T3, membrane LIGHT R189A (human, UniProt O43557 1-240)
# T3 chain: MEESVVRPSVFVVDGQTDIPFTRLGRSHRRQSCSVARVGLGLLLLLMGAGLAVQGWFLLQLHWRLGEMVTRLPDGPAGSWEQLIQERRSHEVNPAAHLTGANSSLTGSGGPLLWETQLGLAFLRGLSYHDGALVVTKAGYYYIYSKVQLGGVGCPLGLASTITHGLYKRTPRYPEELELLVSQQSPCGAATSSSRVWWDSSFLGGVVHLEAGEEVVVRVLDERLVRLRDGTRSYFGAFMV
# Test: flow cytometry, transfected HEK293FF, mAb at EC50
# Method: The day of transfection the cells were seeded in a 24-well plate at 0.6×10⁶ cells/well. Lipofectamine 2000 (ThermoFisher scientific), 3 μl, was mixed with 50 μl OptiMEM medium (GIBCO) and then added to 50 μl Opti-MEM medium containing 3 ug plasmid DNA and incubated for 20 min at RT to form DNA-Lipofectamine 2000 complexes which were then added to the HEK293FF cells and incubated at 37° C., 5% CO₂ for 24 hours. For each construct, in duplicate, 0.60×10⁶ cells/well were used in a 96 well round bottom plate. Cells were centrifuged for 3 minutes at 300×g at 4° C., the supernatant discarded and the cells washed with 150 μl FACS buffer (0.5% FBS in phosphate buffered saline). This process was repeated 3 times. […] The wells were washed 3 times as above and 50 μl/well of goat anti-human IgG FITC (1:1500 dilution in FACS buffer, SIGMA F9512-2ML) or goat anti-mouse APC (1/500 dilution in FACS buffer, BDBioscience 550826), as appropriate, was added to the wells and incubated for 30 min at 4° C. protected from the light, with shaking. The cells were then washed as above, resuspended in 100 μl of FACS buffer and binding of the antibodies to the constructs was measured using flow cytometry and a total of 10,000 cells were acquired for each sample. Controls of buffer and secondary antibody only as well as HEK293FF non transfected cells were also used.
row,Binder,"binding, % of WT [%]"
1,B1,1
2,B2,2
3,B3,0
4,B4,0
5,B5,0
6,B6,0
7,B7,1

# Target: T2, human LIGHT (TNFSF14), full length, …
# Test: competition with biotin-LTβR:Fc, HEK293FF LIGHT cells, flow cytometry
# Method: The ability of the 7 chimeric mAbs to block biotin-HVEM:Fc and biotin-LTβR:Fc fusion proteins to cell surface expressed LIGHT using a flow cytometric based assay is shown in FIGS. 1A and 1B respectively. In these experiments, graded amounts of each antibody were added to the HEK293FF cells transiently transfected with LIGHT with a 50% saturating amount of the receptor fusion protein. As shown, each of the antibodies blocked either receptor fusion protein from binding LIGHT, in contrast to the irrelevant antibody control which had no effect on either Fc-receptor fusion protein binding. In each experiment, all antibodies blocked receptor binding in a dose dependent manner enabling analysis by non-linear regression to determine the IC50 dose as shown in Table 11A.
# Target sequence in this assay (O43557 whole entry K214E): as the sequence (O43557 whole entry K214E) above
row,Binder,IC50 [nM]
1,B1,12
2,B2,14.4
3,B3,2.1
4,B4,1.4
5,B5,1.1
6,B6,1.9
7,B7,0.6

# Target: membrane LIGHT without residues 81-84 (EL4-NC-LIGHT cells) (human, UniProt O43557 1-240)
# Test: cell-based or functional assay
# Chain of membrane LIGHT without residues 81-84 (EL4-NC-LIGHT cells) (O43557 other isoform, or with tags, fused parts or gaps): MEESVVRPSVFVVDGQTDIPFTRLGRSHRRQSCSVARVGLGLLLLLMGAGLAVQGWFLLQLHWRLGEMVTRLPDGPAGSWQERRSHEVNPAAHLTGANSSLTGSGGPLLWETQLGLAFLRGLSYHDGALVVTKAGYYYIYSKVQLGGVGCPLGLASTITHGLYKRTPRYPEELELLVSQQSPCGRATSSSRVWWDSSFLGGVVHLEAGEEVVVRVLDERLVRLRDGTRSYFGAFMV
row,Binder,"IC50, inhibition of IL-8 secretion from HT-29 cells (EL4-NC-LIGHT cells) [nM]"
1,B2,1.8
2,B3,0.6
3,B4,2
4,B5,0.2
5,B6,1.9
6,B7,0.1

# Target: T2, human LIGHT (TNFSF14), full length, …
# Test: DcR3-His (1 nM) competition, EL4-LIGHT, flow cytometry; 11.1 nM
# Method: as §2, §3
row,Binder,"DcR3-His binding, % of irrelevant mAb [%]"
1,B1,71.1
2,B2,85.7
3,B3,77.5
4,B4,75.8
5,B5,78.3
6,B6,83.6
7,B7,61.1
